Laboratory results from publication PMC4056191.

Biological target: H3.3 G90M (pCDH, transfected) (human) (UniProt P84243)
Test: co-IP

Sequence of DAXX found with transfected H3 in 293T cells (Q9UER7 whole entry): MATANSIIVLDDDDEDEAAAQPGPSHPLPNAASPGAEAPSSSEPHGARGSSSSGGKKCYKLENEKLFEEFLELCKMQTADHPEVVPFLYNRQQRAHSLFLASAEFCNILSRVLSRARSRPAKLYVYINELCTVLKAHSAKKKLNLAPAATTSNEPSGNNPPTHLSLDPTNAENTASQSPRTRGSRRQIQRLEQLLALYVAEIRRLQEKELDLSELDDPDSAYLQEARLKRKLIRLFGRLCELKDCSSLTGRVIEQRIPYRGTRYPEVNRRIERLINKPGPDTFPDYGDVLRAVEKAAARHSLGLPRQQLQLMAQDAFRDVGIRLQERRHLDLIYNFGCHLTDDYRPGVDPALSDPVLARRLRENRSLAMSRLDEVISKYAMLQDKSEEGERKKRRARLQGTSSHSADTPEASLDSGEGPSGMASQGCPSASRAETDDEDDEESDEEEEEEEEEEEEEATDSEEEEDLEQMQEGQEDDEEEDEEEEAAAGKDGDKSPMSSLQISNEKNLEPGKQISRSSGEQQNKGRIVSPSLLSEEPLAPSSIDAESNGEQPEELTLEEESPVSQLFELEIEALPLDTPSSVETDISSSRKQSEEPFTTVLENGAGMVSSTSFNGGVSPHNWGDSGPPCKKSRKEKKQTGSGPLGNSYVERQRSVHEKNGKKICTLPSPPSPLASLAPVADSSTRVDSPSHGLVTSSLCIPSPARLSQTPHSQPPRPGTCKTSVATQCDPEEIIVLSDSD

## DAXX found with transfected H3 in 293T cells (from UniProt Q9UER7 1-740) (natural protein)
  reduction of DAXX binding against wild-type H3.3: 50%
